For data set [1], the system named is ZC3H12D short isoform (hZC36), Alexa Fluor 488 labeled (Homo sapiens). The data set can be described thus: FCS. To be noted: 1 nM protein, 10 nM RNA; EMSA: 100 mM HEPES pH 7.3, 200 mM KCl, 10 mM MgCl2, 10 mM DTT, glycerol, tRNA; FCS: protein diluted in 50 mM HEPES pH 7.4, 100 mM NaCl; temperature not given. For orientation: Mobility shift assays separate free from complexed probe on a gel.

In data set [2] the target is T1, ZC3H12D short isoform (hZC36) (Homo sapiens, UniProt A2A288-4 1-321).
T1 sequence: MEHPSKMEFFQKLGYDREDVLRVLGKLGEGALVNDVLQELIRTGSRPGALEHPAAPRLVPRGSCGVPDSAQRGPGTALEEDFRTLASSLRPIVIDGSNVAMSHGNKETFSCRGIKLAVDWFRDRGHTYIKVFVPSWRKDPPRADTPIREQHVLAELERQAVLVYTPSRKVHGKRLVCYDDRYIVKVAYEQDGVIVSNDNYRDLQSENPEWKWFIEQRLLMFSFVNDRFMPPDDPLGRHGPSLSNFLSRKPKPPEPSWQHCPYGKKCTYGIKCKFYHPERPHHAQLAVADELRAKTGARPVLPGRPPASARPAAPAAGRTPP
Description: EMSA; tRNA; very rough estimate by authors; EMSA: 100 mM HEPES pH 7.3, 200 mM KCl, 10 mM MgCl2, 10 mM DTT, glycerol, tRNA; FCS: protein diluted in 50 mM HEPES pH 7.4, 100 mM NaCl; temperature not given. To be noted: protein: recombinant; tags: C-terminal myc-FLAG (pCMV6-Entry).

Kd data for three molecules are collected here from paper PMC8208975, “Extracellular mRNA transported to the nucleus exerts translation-independent function”.

The Kd is the equilibrium constant for the complex coming apart.

Turning to IL1b-mRNA full length, in data set [1], the dissociation constant (Kd) was 1 nM.

The molecule bactin-mRNA had a Kd in data set [1] of 1 nM.

Regarding UAUUUAUUUAUGUAUUUAUUGAUUGGUUGAUCUAUUUAAGUUGAUUCAAG (ssRNA) [EMSA probe 5], the dissociation constant (Kd) in data set [2] was approximately 31.6 nM.
